{
  "source": "paper PMC4640650",
  "about": "(Science Advances, 2015)",
  "target": "the molecule itself",
  "assay": "crystal structure",
  "data": [
    {"protein": "ATP synthase c-subunit of Mycobacterium phlei (Fo rotor ring, c9 ring) (natural protein, UniProt A0A5N5V239 1-86, looked up) MELDPNALITAGALIGGGLIMGGGAIGAGIGDGIAGNALISGIARQPEAQGRLFTPFFITVGLVEAAYFINLAFMALFVFATPGLQ", "values": [
      {"measurement": "stoichiometry N", "result": 9}
    ]}
  ]
}
